This note sets out measurements from the supplement of paper PMC9170038.

The test system of the data set is MS2 coat protein. Put plainly: apparent KD of MS2 coat protein; designed switch direction (-1 OFF switch, 1 ON switch): -1; higher = weaker reporter binding. In short, it runs like this: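 The buffer was Tris-HCl pH 7.5 with KCl, MgCl2, BSA, DTT, tRNA and Tween-20. In it, SNAP-549-labelled MS2 coat protein was titrated in doubling steps from 0.7 or 1.5 nM to 3 µM over chip-bound RNA switches transcribed by stalled E. coli RNA polymerase on Illumina chips. Apparent KD is the per-design median over clusters of curve fits to normalised fluorescence.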

The mark [1] stands for this setting: Eterna round: R95, input ligand: microRNA oligo, concentration not stated.
Where [2] appears, read: input ligand: microRNA oligo, concentration not stated.
[3] abbreviates: Eterna round: R95, input ligand: FMN 200 uM.
[4] abbreviates: Eterna round: R95, input ligand: none.

Regarding “UAUUUGCAAGGAUAUGAUUUAAGUAACAUGAGGAUCACCCAUGUUUAUCCGUUGUUAUGUUCAGAAGGUGCGUGAU [JR_E5_Sub019] (puzzle: Exclusion 5)”, the “apparent KD of MS2 coat protein” value under setting [1] stood at 50.2 nM.
“UCAACCAGAGGAUAUGCGCAUAGAUCAGACUUUGUUUCUGAACAUGAGGAUCACCCAUGUAGAAGGCUGUAACC [Ex2 #78] (Eterna round: R97, puzzle: Exclusion 2)”: the “apparent KD of MS2 coat protein” value is, setting by setting: (input ligand: FMN 200 uM) 28.5 nM; (input ligand: none) 27.1 nM.
In the case of “UCACCGCAAGGAUAUACUUGCGGUGAUGUUCGAAUCUUUCUACUUGAGGAUCACCCAAGUAGAAGGUGCGGUGA [jl-ex2.4.69 ViennaUCT mod] (Eterna round: R97, puzzle: Exclusion 2)”, the “apparent KD of MS2 coat protein” value stood at 15.4 nM (input ligand: FMN 200 uM) and 12.2 nM (input ligand: none).
In the case of “UCACGCACUGUUAGGAUAUGUAUUAUGAAGGUAGUACAGAAGGAACAUGAGGAUCACCCAUGUAAUCCUGGGUG [Eternabot (L1) Solution 61] (Eterna round: R97, puzzle: Brourd's mod of Exclusion 4)”, the “apparent KD of MS2 coat protein” value reads like this: (input ligand: FMN 200 uM) 726 nM; (input ligand: none) 93.1 nM.
In the case of “UCACGGGACUAAGGAUAUACAUGAACCAUUUUUGUAGAAGGUAGAAUGUUUGAUCAUAAACUAAACAUGAGGAUCACCCAUGUU [JR_ExcNG1_Sub090] (Eterna round: R96, puzzle: Exclusion NG 1)”, under setting [2], the “apparent KD of MS2 coat protein” value worked out at 16.9 nM.
Turning to “UCAUACGGUGAGGAUAUCUCCGCUAAAGUGUGUAGAGAAGGCGCUACAUGAGGAUCACCCAUGUUUGUGGGCAG [Ex-6 Malc#11] (puzzle: Exclusion 6)”, the “apparent KD of MS2 coat protein” value under setting [1] was 421 nM.
“UCAUACGUUGAGGAUAUCUCAGUUAGAAUAUUUAGAGAAGGCGAUACAUGAGGAUCACCCAUGUUUAUGGGCAU [Ex-6 Malc#6] (puzzle: Exclusion 6)”: the “apparent KD of MS2 coat protein” value came out at 346 nM under setting [3], 286 nM under setting [1] and 461 nM under setting [4].
Consider “UCAUCGCAAGGAUAUACUUGCGGUGAUGUUCGAAUUCUUCUACUUGAGGAUCACCCAAGUAGAAGGUGCGAUGA [jl-ex2.4.63 ViennaUCT mod] (Eterna round: R97, puzzle: Exclusion 2)”, for which the “apparent KD of MS2 coat protein” value (input ligand: FMN 200 uM) turned out to be 13.2 nM and the “apparent KD of MS2 coat protein” value (input ligand: none) came to 13.5 nM.
Consider “UCAUGGUAGCAGGAUAUGCUAUUUAUUUUUUAUGCAGAAGGGCUUACAUGAGGAUCACCCAUGUGUUAGGUUUA [JR_E6_Sub072] (puzzle: Exclusion 6)”, for which the “apparent KD of MS2 coat protein” value under setting [1] came to 81.3 nM.
Consider “UCAUGUAUGUAGGAUAUCGAUGUCGAAAGACAUCGAGAAGGACGUACAUGAGGAUCACCCAUGUAACUUGCAUG [Exclusion 6 - B - 11:a] (puzzle: Exclusion 6)”, for which the “apparent KD of MS2 coat protein” value by setting is: under setting [3], 12.9 nM; under setting [1], 18.8 nM; under setting [4], 12.9 nM.
As for “UCCCGGGUAGGAUAUGCUAGGGUAUGUUCACUUGAUUUAGGACAUGAGGAUCACCCAUGUAGAAGGGCCCGUCG [Eternabot (L1) Solution 25] (Eterna round: R97, puzzle: Exclusion 2)”, the “apparent KD of MS2 coat protein” value is, setting by setting: (input ligand: FMN 200 uM) 286 nM; (input ligand: none) 459 nM.
With “UCCUCACAUGAGGAUCACCCAUGUUAGGAUAUCCACCGUUGAUGGUGCCGAAUCGGUAGGAGAAGGAACAUACA [EX1 B.18] (Eterna round: R97, puzzle: Exclusion 1)”, the “apparent KD of MS2 coat protein” value by setting is: (input ligand: FMN 200 uM) 58.8 nM; (input ligand: none) 24.1 nM.
As to “UCGACGUAAGGAUAUAUAAGGAACGAAGUAAGUUGUAGAAAAUAGAAGGUACAUGAGGAUCACCCAUGUUAAGA [JR_Exclu4_Sub061] (puzzle: Exclusion 4)”, the “apparent KD of MS2 coat protein” value under setting [3] was determined as 19.4 nM, the “apparent KD of MS2 coat protein” value under setting [1] came out at 19.6 nM and the “apparent KD of MS2 coat protein” value under setting [4] amounted to 18.9 nM.
For the sequence “UCGACUACAGUAGGAUAUGUAGGAUAUGUGGUUGAGGAUCACCCAACCACUUCAACGACAGAAGGACAGAAGGACUGACAUCGU [pwkr exNG2 2xFMN 1xF5.4] (Eterna round: R96, puzzle: Exclusion NG 2)”, the “apparent KD of MS2 coat protein” value was determined as 21.5 nM (input ligand: FMN 200 uM), 14.2 nM under setting [2] and 20.4 nM (input ligand: none).
Turning to “UCGCUCCGUGUAGGAUAUCGCCGUUCUAUUCGGCGAGAAGGACAUGAGGAUCACCCAUGUAUGUUAUUAUCACGCGUGGCGCAC [Design 57] (Eterna round: R96, puzzle: Exclusion NG 1)”, the “apparent KD of MS2 coat protein” value (input ligand: FMN 200 uM) came to 21.5 nM, the “apparent KD of MS2 coat protein” value under setting [2] was found to be 13.9 nM and the “apparent KD of MS2 coat protein” value (input ligand: none) is 19.6 nM.
Regarding “UCGCUGCGAGGAUAUACGUGCGCGCGCGCGCGCGCGCGCGUACAUGAGGAUCACCCAUGUAGAAGGCGCUCUGC [Apr-15 SS2-2] (puzzle: Exclusion 2)”, the “apparent KD of MS2 coat protein” value under setting [1] was 22.9 nM.
“UCGUCGUCGUCAGGAUAUAGUCUUAUUGUUAUGCUUUUGUUCGUACAUGAGGAUCACCCAUGUGGCUAGAAGGGACUAAAGUUU [JR_ExcNG2_Sub017] (Eterna round: R96, puzzle: Exclusion NG 2)”: the “apparent KD of MS2 coat protein” value (input ligand: FMN 200 uM) stood at 19.3 nM, the “apparent KD of MS2 coat protein” value under setting [2] was found to be 17.2 nM and the “apparent KD of MS2 coat protein” value (input ligand: none) was 23 nM.
In the case of “UCGUGUAUAGAGGAUAUAUUAUUUUUUAAAACAAUAGAAGGCUAAACAUGAGGAUCACCCAUGUAUUUGGUUUU [JR_Ex6_Sub053] (Eterna round: R97, puzzle: Exclusion 6)”, the “apparent KD of MS2 coat protein” value is, setting by setting: (input ligand: FMN 200 uM) 82.1 nM; (input ligand: none) 19.6 nM.
As for “UCGUGUAUAGAGGAUAUAUUAUUUUUUUUAACAAUAGAAGGCUAAACAUGAGGAUCACCCAUGUAUUUGGUUUU [JR_Ex6_Sub051] (Eterna round: R97, puzzle: Exclusion 6)”, the “apparent KD of MS2 coat protein” value is, setting by setting: (input ligand: FMN 200 uM) 69.2 nM; (input ligand: none) 22.9 nM.
Consider “UCUAGACAUGAGGAUCACCCAUGUGAGGAUAUGAUGCGAAUAAAGAAAGAAGAAAGCAUCAGAAGGCACAUAUG [Fiskers Ex 1 - 3] (puzzle: Exclusion 1)”, for which the “apparent KD of MS2 coat protein” value under setting [3] was found to be 210 nM, the “apparent KD of MS2 coat protein” value under setting [1] was 116 nM and the “apparent KD of MS2 coat protein” value under setting [4] turned out to be 191 nM.
For the sequence “UCUAGUUCAGGAUAUGUAGAUUUUAACAUGAGGAUCACCCAUGUAGAUCCUGAAUUAGCUACAGAAGGGAACAUUU [Mod of Brourd 2 - Jieux - Exclusion 5] (Eterna round: R97, puzzle: Exclusion 5)”, the “apparent KD of MS2 coat protein” value is, setting by setting: (input ligand: FMN 200 uM) 18.1 nM; (input ligand: none) 13.3 nM.
In the same order, the values of “UCUAUAGGGCUGCAGGCUUACAUGAGGAUCACCCAUGUAUAGGGUUUUCUACGCGCUCGUCAUCAUACAUUAAUUCG [Eternabot (L1) Solution 31] (Eterna round: R97, puzzle: Sensor, turn-off variant 1)” are 44 nM and 53.1 nM.
With “UCUCGCUGGCGAGGAUAUCCUGUGCGGUUCCGGCUCGUGUCUGUUACAUGAGGAUCACCCAUGUGGGAGAAGGUGCCUGUGGCC [Design 95] (Eterna round: R96, puzzle: Exclusion NG 2)”, the “apparent KD of MS2 coat protein” value turned out to be 21.1 nM (input ligand: FMN 200 uM), 15.6 nM under setting [2] and 21 nM (input ligand: none).
Consider “UCUCGUUGGCAAGGAUAUCCUACAUUGUUCUGGCCCGGGCAUGCUACAUGAGGAUCACCCAUGUGGGAGAAGGUGCGCCAUUGC [Design 24] (Eterna round: R96, puzzle: Exclusion NG 2)”, for which the “apparent KD of MS2 coat protein” value is, setting by setting: (input ligand: FMN 200 uM) 80.9 nM; under setting [2], 49.7 nM; (input ligand: none) 65.2 nM.
With “UCUCUUGGGCAAGGAUAUCCUGUGCGGUUCCGGCUCGUGUCUGUCACAUGAGGAUCACCCAUGUGGGAGAAGGUGCCUGCGGUC [Design 81] (Eterna round: R96, puzzle: Exclusion NG 2)”, the “apparent KD of MS2 coat protein” value was found to be 13.6 nM (input ligand: FMN 200 uM), 9.94 nM under setting [2] and 15.1 nM (input ligand: none).
Take “UCUUAGUCAGGAUAUACAUGAGGAUCACCCAUGUAAAAUUUUAAUUUAAUUUUAAGGUGUAGAAGGGACCACCU [Ex3 #18] (Eterna round: R97, puzzle: Exclusion 3)”: the “apparent KD of MS2 coat protein” value reads like this: (input ligand: FMN 200 uM) 19.2 nM; (input ligand: none) 23.4 nM.
As to “UCUUAUAGAGGAUAUACAGAUUAUUACAUGAGGAUCACCCAUGUUCUUCAAUGUAUAUAUGUAGAAGGCUAAGGAU [Mat - Exclusion 5 - JL Mod - D9] (Eterna round: R97, puzzle: Exclusion 5)”, the “apparent KD of MS2 coat protein” value amounted to 316 nM (input ligand: FMN 200 uM) and 111 nM (input ligand: none).
Take “UCUUCACAUGAGGAUCACCCAUGUCAGGAUAUGCUCCCGAGUCACCUUAUCAUGGGACGCAGAAGGGACAUUAU [EX1 B.3] (Eterna round: R97, puzzle: Exclusion 1)”: the “apparent KD of MS2 coat protein” value runs as follows: (input ligand: FMN 200 uM) 43 nM; (input ligand: none) 19.8 nM.
“UGACCUUUUGUCAGGAUAUAUAUACGUGUUGGUAGGUAGAAGGGACAUGAGGAUCACCCAUGUGGUUUGAGCUA [Eternabot (L1) Solution 74] (Eterna round: R97, puzzle: Brourd's mod of Exclusion 4)”: the “apparent KD of MS2 coat protein” value was determined as 433 nM (input ligand: FMN 200 uM) and 155 nM (input ligand: none).
Take “UGACGCACGCGAGGAUAUUCCCACGAAACAAACAACGAAGGGUACAUGAGGAUCACCCAUGUGGCGAAGAAGGCGCGCGUCCGG [Eternabot solution 1] (Eterna round: R96, puzzle: Exclusion NG 2)”: the “apparent KD of MS2 coat protein” value (input ligand: FMN 200 uM) came out at 923 nM, the “apparent KD of MS2 coat protein” value under setting [2] came to 503 nM and the “apparent KD of MS2 coat protein” value (input ligand: none) is 1310 nM.
Regarding “UGACGUCAUGUCAGGAUAUAGGCGAUGCGUGUCUUCUAGAAGGGACAUGAGGAUCACCCAUGUAAACUUUUGGU [Eternabot (L1) Solution 56] (Eterna round: R97, puzzle: Brourd's mod of Exclusion 4)”, the “apparent KD of MS2 coat protein” value runs as follows: (input ligand: FMN 200 uM) 136 nM; (input ligand: none) 148 nM.
